Laboratory results published in paper PMC3846092.

Target: Cd^2+-bound Y82C-KcsA (UniProt P0A334)
Test: crystal structure

- stoichiometry N: 4
Substance: Cd^2+-bound Y82C-KcsA (from UniProt P0A334 1-160) (natural protein)
